In patent US20170096493A1 (EISAI R AND D MANAGEMENT, published 2017):
Substitutions are numbered along the chain they refer to. Numbers in names are those of the source.

B1: HK1L3 (antibody, human IgG2, kappa, V domains shown)
VH: EVQLVESGGGLVQPGGSLRLSCAASGFTFSSYGMSWVRQAPGKGLEYVSTINSNGGRTYYPDSVKGRFTISRDNSKNTLYLQMGSLRAEDMAVYYCARDQGFAYWGQGTLVTVSS
VL: EIVMTQSPATLSVSPGERATLSCKASQDVGTAVAWYQQKPGQAPRLLIYWASTRHTGIPARFSGSGSGTEFTLTISSLQSEDFAVYYCQQYSSYPWTFGQGTKVEIKR
notes: Humanized IgG2 (V234A, G237A)/κ; also called No. 8
B2: HK1L4 (antibody, human IgG2, kappa, V domains shown)
VH: B1 VH
VL: B1 VL with Y87F
notes: Humanized IgG2 (V234A, G237A)/κ; also called No. 9
B3: HA1L2 (antibody, human IgG2, kappa, V domains shown)
VH: B1 VH with P61A, D62N
VL: DIQMTQSPSSLSASVGDRVTITCKASQDVGTAVAWYQQKPGKVPKLLIYWASTRHTGVPSRFSGSGSGTDFTLTISSLQPEDVATYFCQQYSSYPWTFGQGTKVEIKR
notes: Humanized IgG2 (V234A, G237A)/κ; also called No. 22
B4: HA1L5 (antibody, human IgG2, kappa, V domains shown)
VH: B1 VH with P61A, D62N
VL: B3 VL with V43S
notes: Humanized IgG2 (V234A, G237A)/κ; also called No. 25
B5: HK2L2 (antibody, human IgG2, kappa, V domains shown)
VH: B1 VH with Y47L
VL: B3 VL
notes: Humanized IgG2 (V234A, G237A)/κ; also called No. 12
B6: HA2L1 (antibody, human IgG2, kappa, V domains shown)
VH: B1 VH with Y47L, P61A, D62N
VL: B3 VL with F87Y
notes: Humanized IgG2 (V234A, G237A)/κ; also called No. 26
B7: HA2L2 (antibody, human IgG2, kappa, V domains shown)
VH: B1 VH with Y47L, P61A, D62N
VL: B3 VL
notes: Humanized IgG2 (V234A, G237A)/κ; also called No. 27
B8: HK2L1 (antibody, human IgG2, kappa, V domains shown)
VH: B1 VH with Y47L
VL: B3 VL with F87Y
notes: Humanized IgG2 (V234A, G237A)/κ; also called No. 11
B9: HK3L1 (antibody, human IgG2, kappa, V domains shown)
VH: B1 VH with Y47L, S49A, R87K
VL: B3 VL with F87Y
notes: Humanized IgG2 (V234A, G237A)/κ; also called No. 16
B10: HK3L2 (antibody, human IgG2, kappa, V domains shown)
VH: B1 VH with Y47L, S49A, R87K
VL: B3 VL
notes: Humanized IgG2 (V234A, G237A)/κ; also called No. 17
B11: HK2L4 (antibody, human IgG2, kappa)
heavy: EVQLVESGGGLVQPGGSLRLSCAASGFTFSSYGMSWVRQAPGKGLELVSTINSNGGRTYYPDSVKGRFTISRDNSKNTLYLQMGSLRAEDMAVYYCARDQGFAYWGQGTLVTVSSASTKGPSVFPLAPCSRSTSESTAALGCLVKDYFPEPVTVSWNSGALTSGVHTFPAVLQSSGLYSLSSVVTVPSSNFGTQTYTCNVDHKPSNTKVDKTVERKCCVECPPCPAPPAAAPSVFLFPPKPKDTLMISRTPEVTCVVVDVSHEDPEVQFNWYVDGVEVHNAKTKPREEQFNSTFRVVSVLTVVHQDWLNGKEYKCKVSNKGLPAPIEKTISKTKGQPREPQVYTLPPSREEMTKNQVSLTCLVKGFYPSDIAVEWESNGQPENNYKTTPPMLDSDGSFFLYSKLTVDKSRWQQGNVFSCSVMHEALHNHYTQKSLSLSPGK
light: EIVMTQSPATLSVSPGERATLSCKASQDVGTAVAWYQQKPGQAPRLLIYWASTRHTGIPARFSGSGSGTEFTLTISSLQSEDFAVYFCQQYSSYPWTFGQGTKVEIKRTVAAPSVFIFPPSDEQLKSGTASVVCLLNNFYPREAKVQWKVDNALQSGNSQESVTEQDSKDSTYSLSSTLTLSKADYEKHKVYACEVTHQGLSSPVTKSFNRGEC
notes: Humanized IgG2 (V234A, G237A)/κ; also called No. 14
B12: HA2L3 (antibody, human IgG2, kappa)
heavy: B11 heavy with P61A, D62N
light: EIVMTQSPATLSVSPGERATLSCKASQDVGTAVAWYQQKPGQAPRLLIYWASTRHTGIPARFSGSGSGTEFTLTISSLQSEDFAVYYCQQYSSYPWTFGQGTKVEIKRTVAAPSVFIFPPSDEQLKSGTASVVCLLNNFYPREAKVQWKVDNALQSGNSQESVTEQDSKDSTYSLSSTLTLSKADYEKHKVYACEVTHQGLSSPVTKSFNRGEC
notes: Humanized IgG2 (V234A, G237A)/κ; also called No. 28
B13: HA2L4 (antibody, human IgG2, kappa)
heavy: B11 heavy with P61A, D62N
light: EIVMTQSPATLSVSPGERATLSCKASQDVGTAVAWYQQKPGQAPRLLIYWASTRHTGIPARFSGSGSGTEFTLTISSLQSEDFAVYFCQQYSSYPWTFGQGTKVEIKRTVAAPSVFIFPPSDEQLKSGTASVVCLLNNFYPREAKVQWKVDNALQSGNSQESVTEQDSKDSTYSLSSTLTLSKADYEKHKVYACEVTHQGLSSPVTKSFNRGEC
notes: Humanized IgG2 (V234A, G237A)/κ; also called No. 29
B14: HK2L3 (antibody, human IgG2, kappa)
heavy: B11 heavy
light: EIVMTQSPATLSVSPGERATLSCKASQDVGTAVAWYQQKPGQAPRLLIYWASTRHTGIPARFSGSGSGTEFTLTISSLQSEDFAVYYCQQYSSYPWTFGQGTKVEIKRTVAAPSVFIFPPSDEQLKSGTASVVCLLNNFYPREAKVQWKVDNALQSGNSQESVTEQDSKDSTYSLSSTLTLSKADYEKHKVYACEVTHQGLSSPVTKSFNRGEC
notes: Humanized IgG2 (V234A, G237A)/κ; also called No. 13
B15: HK3L3 (antibody, human IgG2, kappa)
heavy: B11 heavy with S49A, R87K
light: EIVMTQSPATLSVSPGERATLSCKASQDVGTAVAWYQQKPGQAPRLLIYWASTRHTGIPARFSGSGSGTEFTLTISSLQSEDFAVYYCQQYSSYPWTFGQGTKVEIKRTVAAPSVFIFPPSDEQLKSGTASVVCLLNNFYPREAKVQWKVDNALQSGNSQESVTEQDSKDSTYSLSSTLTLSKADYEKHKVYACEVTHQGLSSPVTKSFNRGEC
notes: Humanized IgG2 (V234A, G237A)/κ; also called No. 18
B16: HK3L4 (antibody, human IgG2, kappa)
heavy: B11 heavy with S49A, R87K
light: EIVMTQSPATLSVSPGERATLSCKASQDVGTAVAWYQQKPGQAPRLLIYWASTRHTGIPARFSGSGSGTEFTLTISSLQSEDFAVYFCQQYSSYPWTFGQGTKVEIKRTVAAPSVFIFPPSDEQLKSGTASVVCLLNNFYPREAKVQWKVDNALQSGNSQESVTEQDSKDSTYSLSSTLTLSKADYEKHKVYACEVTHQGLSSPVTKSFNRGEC
notes: Humanized IgG2 (V234A, G237A)/κ; also called No. 19
B17: HA2L5 (antibody, human IgG2, kappa)
heavy: B11 heavy with P61A, D62N
light: DIQMTQSPSSLSASVGDRVTITCKASQDVGTAVAWYQQKPGKSPKLLIYWASTRHTGVPSRFSGSGSGTDFTLTISSLQPEDVATYFCQQYSSYPWTFGQGTKVEIKRTVAAPSVFIFPPSDEQLKSGTASVVCLLNNFYPREAKVQWKVDNALQSGNSQESVTEQDSKDSTYSLSSTLTLSKADYEKHKVYACEVTHQGLSSPVTKSFNRGEC
notes: Humanized IgG2 (V234A, G237A)/κ; also called No. 30
B18: HK2L5 (antibody, human IgG2, kappa)
heavy: B11 heavy
light: B17 light
notes: Humanized IgG2 (V234A, G237A)/κ; also called No. 15
B19: HK3L5 (antibody, human IgG2, kappa)
heavy: B11 heavy with S49A, R87K
light: B17 light
notes: Humanized IgG2 (V234A, G237A)/κ; also called No. 20
B20: HA2L6(Lys-) (antibody, human IgG2, kappa, V domains shown)
VH: B1 VH with Y47L, P61A, D62N
VL: B1 VL with A43S, Y87F
notes: Humanized IgG2 (V234A, G237A)/κ; also called No. 40
B21: HK3L6(Lys-) (antibody, human IgG2, kappa, V domains shown)
VH: B1 VH with Y47L, S49A, R87K
VL: B1 VL with A43S, Y87F
notes: Humanized IgG2 (V234A, G237A)/κ; also called No. 42
B22: HA2L5(Lys-) (antibody, human IgG2, kappa)
heavy: EVQLVESGGGLVQPGGSLRLSCAASGFTFSSYGMSWVRQAPGKGLELVSTINSNGGRTYYANSVKGRFTISRDNSKNTLYLQMGSLRAEDMAVYYCARDQGFAYWGQGTLVTVSSASTKGPSVFPLAPCSRSTSESTAALGCLVKDYFPEPVTVSWNSGALTSGVHTFPAVLQSSGLYSLSSVVTVPSSNFGTQTYTCNVDHKPSNTKVDKTVERKCCVECPPCPAPPAAAPSVFLFPPKPKDTLMISRTPEVTCVVVDVSHEDPEVQFNWYVDGVEVHNAKTKPREEQFNSTFRVVSVLTVVHQDWLNGKEYKCKVSNKGLPAPIEKTISKTKGQPREPQVYTLPPSREEMTKNQVSLTCLVKGFYPSDIAVEWESNGQPENNYKTTPPMLDSDGSFFLYSKLTVDKSRWQQGNVFSCSVMHEALHNHYTQKSLSLSPG
light: B17 light
notes: Humanized IgG2 (V234A, G237A)/κ; also called No. 33
B23: HK1L5 (antibody, human IgG2, kappa, V domains shown)
VH: B1 VH
VL: B3 VL with V43S
notes: Humanized IgG2 (V234A, G237A)/κ; also called No. 10

molecular target: T1, Human Notch4-NRR domain Fc fusion protein (human, UniProt Q99466 1046-1445, limits assumed); assay: SPR (Biacore) as for Table 30; Notch4-NRR-Fc captured, antibody injected; averaged, N=2
T1 construct: Expressed in a CHO cell line, used from culture supernatant; 1 is named; also called Human Notch4-NRR Fusion Protein; not shown: Fc
T1 sequence: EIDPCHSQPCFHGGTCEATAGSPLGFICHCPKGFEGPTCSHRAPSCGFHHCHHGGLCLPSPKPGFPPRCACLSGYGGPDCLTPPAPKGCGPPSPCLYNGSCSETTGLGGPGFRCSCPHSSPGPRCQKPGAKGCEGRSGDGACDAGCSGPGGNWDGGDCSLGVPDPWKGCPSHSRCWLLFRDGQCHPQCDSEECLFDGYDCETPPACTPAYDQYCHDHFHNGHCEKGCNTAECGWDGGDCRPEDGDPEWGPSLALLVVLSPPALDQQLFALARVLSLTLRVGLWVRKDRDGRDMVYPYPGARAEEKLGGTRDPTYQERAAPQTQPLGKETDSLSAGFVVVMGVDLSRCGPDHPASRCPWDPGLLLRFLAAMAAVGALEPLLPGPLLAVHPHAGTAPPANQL
Protocol: (§1) Kinetic analysis of further anti-Notch4 inhibitory humanized antibodies was carried out as follows. Human Notch4-NRR domain Fc fusion proteins were expressed with a CHO cell line. The antigen in the culture supernatant was captured by the anti-human Notch4 antibody fixed on a CM5 sensor chip that recognizes different epitopes of human Notch4. The humanized anti-human Notch4 antibody was then injected onto the sensor chip at various concentrations. The interaction and disassociation constants thereof were calculated according to manufacturer's instructions.

Kd [nM] | koff [s⁻¹] | kon [M⁻¹ s⁻¹] | Binder
4.87 | 0.0196 | 3.71e+06 | B1
4.34 | 0.0118 | 2.78e+06 | B2
18.6 | 0.0122 | 649000 | B3
7.2 | 0.0452 | 6.36e+06 | B4

molecular target: T1, Human Notch4-NRR domain Fc fusion …; assay: SPR (Biacore) as for Table 30; Notch4-NRR-Fc captured, antibody injected; averaged, N=4
Protocol: as §1

Kd [nM] | koff [s⁻¹] | kon [M⁻¹ s⁻¹] | Binder
1.38 | 0.00157 | 1.23e+06 | B5
1.76 | 0.00166 | 949000 | B6
1.41 | 0.00222 | 1.63e+06 | B7
1.84 | 0.0016 | 875000 | B8
1.76 | 0.00133 | 783000 | B9
1.29 | 0.00145 | 1.13e+06 | B10

molecular target: T1, Human Notch4-NRR domain Fc fusion …; assay: SPR (Biacore) as for Table 30; Notch4-NRR-Fc captured, antibody injected; averaged, N=6
Protocol: as §1

Kd [nM] | koff [s⁻¹] | kon [M⁻¹ s⁻¹] | Binder
0.634 | 0.00117 | 1.89e+06 | B11
0.727 | 0.00137 | 1.95e+06 | B12
0.738 | 0.00169 | 2.33e+06 | B13
0.682 | 0.00109 | 1.62e+06 | B14
0.897 | 0.00104 | 1.22e+06 | B15
0.755 | 0.0012 | 1.61e+06 | B16
0.612 | 0.00136 | 2.49e+06 | B17
0.549 | 0.00112 | 2.07e+06 | B18
0.601 | 0.00102 | 1.72e+06 | B19

molecular target: T1, Human Notch4-NRR domain Fc fusion …; assay: SPR (Biacore) as for Table 30; Notch4-NRR-Fc captured, antibody injected; averaged, N=3
Protocol: as §1

Kd [nM] | koff [s⁻¹] | kon [M⁻¹ s⁻¹] | Binder
0.838 | 0.00151 | 1.83e+06 | B20
0.766 | 0.00114 | 1.51e+06 | B21
0.776 | 0.0015 | 2.01e+06 | B22
1.78 | 0.00489 | 2.72e+06 | B23
